One substance from article PMC6313988 can be followed below.

The target of this experiment is hypothetical protein ST2166 (putative isocitrate dehydrogenase) from Sulfolobus tokodaii strain 7 (Sulfolobus tokodaii strain 7). Kind of experiment: crystal structure; hanging-drop crystals of ST2166 (8 mg/mL) in 13% PEG 10,000, 100 mM HEPES pH 7.5, 10°C; space group P21, two monomers in the asymmetric unit; apo form at 2.0 Å and crystal soaked with 25 mM NADP+ at 2.4 Å.

As a reminder, the stoichiometry N is a count of units in the complex or per binding partner. Take “hypothetical protein ST2166 (putative isocitrate dehydrogenase) from Sulfolobus tokodaii strain 7 (enzyme)”: the stoichiometry N amounted to 2.
